Changes are numbered by the printed parent chain.
Columns and labels:
HSV-1 TK [1] = biological target: T1, HSV-1 TK (Human herpesvirus 1, UniProt P0DTH5); details: reference (29); cited from earlier work
T1 sequence (P0DTH5 1-376): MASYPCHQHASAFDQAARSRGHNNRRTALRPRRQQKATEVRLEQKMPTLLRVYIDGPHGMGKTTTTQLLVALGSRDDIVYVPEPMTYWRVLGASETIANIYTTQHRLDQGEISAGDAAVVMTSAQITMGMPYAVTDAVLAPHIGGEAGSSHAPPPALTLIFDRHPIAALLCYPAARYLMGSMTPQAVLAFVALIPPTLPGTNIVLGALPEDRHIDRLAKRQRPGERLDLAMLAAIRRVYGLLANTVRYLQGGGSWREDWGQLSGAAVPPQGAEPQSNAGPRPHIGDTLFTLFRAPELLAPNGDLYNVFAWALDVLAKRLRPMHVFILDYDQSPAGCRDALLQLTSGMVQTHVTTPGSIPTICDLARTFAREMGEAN

HSV-1 TK [2] = biological target: T1, HSV-1 TK; assay: Photoaffinity labeling with [^32P]5-azido-dUMP; format: binding, herpes simplex virus type 1; parameters: made in house; host or cells: E. coli BL21SY211 (pET-9a derived pET-TK1); details: FIG. 1, autoradiograph
Procedure: The TMP photoaffinity analog, [^32P]5-N3dUMP, was synthesized enzymatically using HSV-1 TK, 5-azido-deoxyuridine and [g-^32P]ATP as previously described (10, 12). For photolabeling studies, 10 μg of the DE-52/heparin agarose purified HSV-TKs were incubated with 10 mM [^32P]5-N3dUMP for 10 seconds. The sample was then irradiated for 90 seconds with a hand-held UV lamp (254 nm UVP-11, Ultraviolet Products, Inc.) at a distance of 3 cm. Reactions were terminated by addition of an equal volume of 10% TCA, incubated on ice for 10 minutes, and pelleted by centrifugation at 13,000×g for 5 minutes. The protein was resuspended in a solubilization mixture (23) and separated on 10% SDS-polyacrylamide gels. Dried gels were exposed to film for 2 days.
The thymidine and TMP photoaffinity analog, [^32p]5-azido-dUMP, has proven useful as an active-site cross-linking reagent for studying HSV-1 TK (10, 12). This analog was used for photocrosslinking of the four HSV-1 TKs.

Caspase 3 = Caspase 3 colorimetric assay; format: cell-based, human; details: 25 μM GCV, FIG. 8
Procedure: Parental HCT-116, wild-type HSV-1TK, Asn-125TK and Glu-125TK-expressing HCT-116 cells were treated with 0 (black bars) or 25 μM GCV (gray bars) for 4 days. Cell lysates were prepared and caspase 3 assays performed using a colorimetric ApoAlert CPP32/Caspase-3 kit as per manufacturers instructions (Clontech). Relative caspase 3 activity was determined by O.D. 405 nm readings of the cleaved DEVD-pNA substrate and presented as DVEDase activity.
Caspase 3-like activity was determined in parental HCT-116 and each HSV-1 TK expressing cell line treated for 50 hrs plus or minus 25 μM GCV using an Apo-Alert CPP32/Caspase 3 Colorimetric Assay kit with the peptide substrate, DEVD-pNA, as per manufacturers instructions (Clontech Laboratories, INC.). GCV-treated and untreated cells were grown in 25 cm^2 flasks, and cell numbers were determined using a hemocytometer prior to analysis. Assays were done in triplicate with protein extracts derived from 2×10^6 cells. The amount of Caspase 3-like activities were quantitated using a Shimadzu UV/VIS spectophotometer set at 405 nm.
Caspase 3 activity was determined in different cell extracts derived from GCV-treated and control cells using a calorimetric assay with the peptide substrate DVED (SEQ ID No. 4).

HSV-1 TK [3] = biological target: T2, HSV-1 TK (Human herpesvirus 1, UniProt P0DTH5, Q125E); details: previous study (17); cited from earlier work
T2 construct: glutathione-S-transferase (GST)
T2 sequence (P0DTH5 1-376 Q125E): T1 sequence (P0DTH5 1-376) with Q125E

Row | Substance | Km for thymidine lower than that of GCV (HSV-1 TK [1]) | Photoincorporation of [^32P]5-azido-dUMP (HSV-1 TK [2]) | DVED-ase activity of GCV-treated cells relative to GCV-treated wild-type or Asn-125 HSV-1TK-expressing cells (Caspase 3) | Thymidine and ACV phosphorylation activities (HSV-1 TK [3])
1 | Gln-125 (WT): wild-type herpes simplex virus type 1 thymidine kinase with glutamine at position 125, parent enzyme [reference compound] | 70-100 times | photoincorporated efficiently |  | 
2 | Glu-125 |  |  | three times lower | no detectable activities

Reference: patent US6610289B2, “Mutated herpes simplex virus type 1 thymidine kinases and uses thereof” (The Board of Trustees of the University of Arkansas, priority 1998, dated 2003)
